The values that follow come from publication PMC3516504.

For assay [1], the target named is Calmodulin, Ca2+-bound (Ca2+-CaM) (UniProt P0DP23). The assay can be described thus: native gel or EMSA; non-denaturing PAGE band shift; increasing amounts of Lf incubated with a constant amount of Ca2+-CaM; running buffer 0.1 mM CaCl2, samples 0.5 mM CaCl2, no urea. (A gel shift assay detects complexes by their altered migration in electrophoresis.)
Assay [2] addresses Dansylated calmodulin, Ca2+-bound (Ca2+-dCaM) (UniProt P0DP23). Description: other fluorescence titration; dansyl fluorescence (excitation 340 nm, intensity at 485 nm); ~80 µM Lf titrated into 1.4 µM dansylated CaM; 50 mM Tris pH 7.5, 1 mM CaCl2, 100 mM KCl (also run at 50 and 150 mM KCl); one site model, CaLigator; triplicate.
Assay [3] deals with Calmodulin, Ca2+-bound (Ca2+-CaM) (UniProt P0DP23). The assay can be described thus: NMR titration; TROSY-HSQC of 2H/15N-labelled Ca2+-CaM titrated with unlabelled apo-Lf (titration data not shown); 20 mM Bis-Tris pH 6.8, 150 mM KCl, 4 mM CaCl2, 37 °C.

A word on the stoichiometry N: it is a count of units in the complex or per binding partner. Usually Kd stands for the concentration at which binding is half-saturated. The low end stands for a tighter complex, the high end for a looser complex.

In the case of “Human lactoferrin, iron-saturated (Fe3+-Lf) (natural protein)”, in assay [1], the stoichiometry N came out at 1. Also, the Kd in assay [2] amounted to 2100 nM.

Turning to “Human lactoferrin, iron-free (apo-Lf) (natural protein)”, the stoichiometry N in assay [3] and in assay [1] was 1 throughout. In assay [2], this substance yielded a Kd of 3500 nM.
